T1: biotin-conjugated KIFC1 (residues 1-50)
T1 sequence (peptide, biotin on the N-terminus): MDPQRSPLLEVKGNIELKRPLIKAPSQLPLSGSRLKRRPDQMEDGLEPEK

B1: 6CD1-IMGT IgG (antibody, V domains shown)
VH: EVQLQQSGAELVKPGASVKLSCTASGFNIKDTYIHWVKQRPEQGLEWIGRIDPANGNTKYDPKFQGKATITADTSSNTAYLQLSSLTSEDTAVYYCARGYGSRSAMDYWGQGTSVTVS
VL: DIVLTQSPASLAVSLGQRATISCRASQSLFNSRTRKNYMLWYQQKPGQPPKLLIYLASNLESGVPARFSGSGSGTDFTLNIHPVEEEDAATYYCQHSRELPWTFGGGTKLEIK
B2: 6C407 IgG (antibody, V domains shown)
VH: B1 VH
VL: DIVLTQSPASLAVSLGQRATISCRASKSVSTSGYSYMLWYQQKPGQPPKLLIYLASNLESGVPARFSGSGSGTDFTLNIHPVEEEDAATYYCQHSRELPWTFGGGTKLEIK

Target: T1, biotin-conjugated KIFC1 (residues 1-50)
Test: BLI

Row | Binder | Kd | koff | kon
1 | B1 | 9.31 nM | 0.000682 s⁻¹ | 73100 M⁻¹ s⁻¹
2 | B2 | 10.6 nM | – | –
